{"source": "paper PMC12612047", "about": "(Nature Communications, 2025)", "tested_on": "CNA/B", "experiment": "Affinity of CLMB T44E for CNA/B", "format": "binding", "conditions": "glutamate for threonine at position 44; data not shown", "data": [{"molecule": "CLMB^T44E (protein) MGLKMSCLKGFQMCVSSSSSSHDEAPVLNDKHLDVPDIIITPPEPTGMMLPRDLGSTVWLDETGSCPDDGEIDPEA", "values": [{"measurement": "affinity for CNA/B relative to CLMB", "result": "failed to show increased affinity"}]}]}
